Assay results reported in publication PMC5538626, “Structural and functional analysis of the GABARAP interaction motif (GIM)” (EMBO Reports, 2017).

Molecular target: LC3B (for ITC and NMR) (human), Q9GZQ8
Assay: ITC; peptide 0.4 mM titrated into 0.020 mM LC3/GABARAP protein in 26 steps, 25°C; 50 mM Na2HPO4, 100 mM NaCl, pH 7.0; one-site model

B1: PLEKHM1‐LIR W635A peptide (ITC), Q9Y4G2 629-642 (peptide)
chain: PQQEDEAVNVQYPD
modifications: not checked
Ka: 10000 M⁻¹ | Kd: > 100 µM | dH: -0.8 kcal/mol

B2: PLEKHM1‐LIR V636G peptide (ITC), Q9Y4G2 629-642 (peptide)
chain: PQQEDEWGNVQYPD
modifications: not checked
Ka: 10000 M⁻¹ | Kd: > 100 µM | dH: -1.7 kcal/mol
